B1: 55F (ssRNA)
RNA: GGGAGGACGAUGCGGUCCGUCAUAACGGCCAUAAACUGCGAAUACUCCCUGGCCCAGACGACUCGCCCGA
modifications: 2'-F pyrimidines
B2: 11N (ssRNA)
RNA: GGGAGGACGAUGCGGGGGCCGGAUUUGAACCGACGACUUCGGGUUAUGAGCCCGACGUCAGACGACUCGCCCGA
modifications: 2'-NH2 pyrimidines
B3: 16N (ssRNA)
RNA: GGGAGGACGAUGCGGAAGUUCUAACAAGUUAGUGGAAGGUUCCACUUGAAUGUACAGACGACUCGCCCGA
modifications: 2'-NH2 pyrimidines
B4: 24F (ssRNA)
RNA: GGGAGGACGAUGCGGUGGUCUCCCUAGAUCUACAGCACUUCCAUCGCAUUGGGCCAGACGACUCGCCCGA
modifications: 2'-F pyrimidines
B5: 42F (ssRNA)
RNA: GGGAGGACGAUGCGGCGACACAAUAGCCUUUGAUCCCAUGAUGGCUCGCCGUGCCCAGACGACUCGCCCGA
modifications: 2'-F pyrimidines
B6: 47N (ssRNA)
RNA: GGGAGGACGAUGCGGGAAGGGUAGGAAGGUCAAGAGGAAACAGCGCUUCGGGGUGCAGACGACUCGCCCGA
modifications: 2'-NH2 pyrimidines
B7: 25N (ssRNA)
RNA: GGGAGGACGAUGCGGGAGGGAAUGAGGAAACAACUAGCAGAUAACCGAGCUGGCCAGACGACUCGCCCGA
modifications: 2'-NH2 pyrimidines
B8: 57F (ssRNA)
RNA: GGGAGGACGAUGCGGUGACUAUCUGGCUCGAUCCAAUCACCCGAGCCCACCGCGCCAGACGACUCGCCCGA
modifications: 2'-F pyrimidines
B9: 36N (ssRNA)
RNA: GGGAGGACGAUGCGGGAAGGGAACAGGAUAAGACAAGUCGAACAAAGCCGAGGUGCAGACGACUCGCCCGA
modifications: 2'-NH2 pyrimidines
B10: 41F (ssRNA)
RNA: GGGAGGACGAUGCGGGGACUUUGACAGGCAUUGAUUUCGACCUGUUCCCCGUGGCCAGACGACUCGCCCGA
modifications: 2'-F pyrimidines
B11: 49F (ssRNA)
RNA: B10 RNA with C42G
modifications: 2'-F pyrimidines
B12: 7F (ssRNA)
RNA: GGGAGGACGAUGCGGCGGGUACUCUUCGCCAGCUCCUCCAAGCGCGACCUGUGCCCAGACGACUCGCCCGA
modifications: 2'-F pyrimidines
B13: 71N (ssRNA)
RNA: GGGAGGACGAUGCGGAAACGGCGUGGCAAAAGUGAGGGGGUAGGAUGUACCAUGGGUCAGACGACUCGCCCGA
modifications: 2'-NH2 pyrimidines
B14: 8F (ssRNA)
RNA: GGGAGGACGAUGCGGUUUCGAAUAGGGCCAUUUCUCACUAGCUAUCCUACCCUGCCCAGACGACUCGCCCGA
modifications: 2'-F pyrimidines
B15: 58F (ssRNA)
RNA: GGGAGGACGAUGCGGGAACUAAUGGCCGUGAUUAACCAAUGCAGGCUUCCUGCGCCAGACGACUCGCCCGA
modifications: 2'-F pyrimidines
B16: 23F (ssRNA)
RNA: GGGAGGACGAUGCGGCCCUACCACUUUUUCCCUCUACUGUUAUCCUGUCCCCCAGACGACUCGCCCGA
modifications: 2'-F pyrimidines
B17: 72N (ssRNA)
RNA: GGGAGGACGAUGCGGGAGGGGAAAAUGAGACCGACAGAUUGACGGAAGUACUGGGCAGACGACUCGCCCGA
modifications: 2'-NH2 pyrimidines
B18: 11F (ssRNA)
RNA: GGGAGGACGAUGCGGUGAUGGCGACCAGUCAAACCGGUGCUUUUACUCCCCCGCCAGACGACUCGCCCGA
modifications: 2'-F pyrimidines
B19: 53F (ssRNA)
RNA: GGGAGGACGAUGCGGAUCAAAAGCACUCAUUCCCGUGCUCGCUUCAUUGGUCCCCCAGACGACUCGCCCGA
modifications: 2'-F pyrimidines
B20: 35F (ssRNA)
RNA: GGGAGGACGAUGCGGCGAAAUUAGCUUCUUAUGACUCACGUUUCCUUGCCGCCCCAGACGACUCGCCCGA
modifications: 2'-F pyrimidines
B21: 34N (ssRNA)
RNA: GGGAGGACGAUGCGGGCGGGAAGAGCUAAUGGAAGUGGAAUCAGUCACAGUGCGGCAGACGACUCGCCCGA
modifications: 2'-NH2 pyrimidines
B22: 55N (ssRNA)
RNA: GGGAGGACGAUGCGGACACACAAGUGAAGGUCAGACGCGAAUUACGUGGGUGGGCAGACGACUCGCCCGA
modifications: 2'-NH2 pyrimidines
B23: 9F (ssRNA)
RNA: GGGAGGACGAUGCGGAUAAUGGCUAGAACUAGCUCGCAUCUUGGUGUCCGGUGCCCAGACGACUCGCCCGA
modifications: 2'-F pyrimidines
B24: 35N (ssRNA)
RNA: GGGAGGACGAUGCGGGCUUAGGGAAAUGGUUCUGAGGUGGUCAGACGACUCGCCCGA
modifications: 2'-NH2 pyrimidines
B25: 45F (ssRNA)
RNA: GGGAGGACGAUGCGGGUCGUAUUCAUCUCCUUGUUCUGUUUCGUUGCACCUGGCCCAGACGACUCGCCCGA
modifications: 2'-F pyrimidines
B26: 29F (ssRNA)
RNA: GGGAGGACGAUGCGGGGACUUCAACUAAGUCCUCAUUUGCCUCGCUCCUCGUGCCCAGACGACUCGCCCGA
modifications: 2'-F pyrimidines
B27: 60N (ssRNA)
RNA: GGGAGGACGAUGCGGCCCCUUAGCUCAGUGGUUAGAGCAGACGACUCGCCCGA
modifications: 2'-NH2 pyrimidines
B28: 60F (ssRNA)
RNA: GGGAGGACGAUGCGGUGACAUGGAAUUUUCUACGGGCCCGAUCCUGCCAGCCGUGUGCAGACGACUCGCCCGA
modifications: 2'-F pyrimidines
B29: 48N (ssRNA)
RNA: GGGAGGACGAUGCGGGGCAAAGGAAGUUGGAAUCGGGACUAAGUAGUGUGUGGCCAGACGACUCGCCCGA
modifications: 2'-NH2 pyrimidines
B30: 69N (ssRNA)
RNA: GGGAGGACGAUGCGGGUAGGGAGUAGGACAGACAUAACAGUGCAACCAUCGUGGCCAGACGACUCGCCCGA
modifications: 2'-NH2 pyrimidines
B31: 28N (ssRNA)
RNA: GGGAGGACGAUGCGGUUGCUCUACAAUGACGCGGUGACUCCGCAGUUCUUGGACACAGACGACUCGCCCGA
modifications: 2'-NH2 pyrimidines
B32: 27F (ssRNA)
RNA: GGGAGGACGAUGCGGCAGUCUGGAUCUCUAUUGGAAUUUAGUCCUCAACUGUGCCCCAGACGACUCGCCCGA
modifications: 2'-F pyrimidines
B33: 54F (ssRNA)
RNA: GGGAGGACGAUGCGGAAGAUCUCCCAACUGCUGUGGCUAAUAAUUCUCUCCGCGUCCCCAGACGACUCGCCCGA
modifications: 2'-F pyrimidines
B34: 22F (ssRNA)
RNA: GGGAGGACGAUGCGGCCUGAAGUACAGGCUCUAAACUCCAAGCGCGACCGUCCGCCAGACGACUCGCCCGA
modifications: 2'-F pyrimidines
B35: 10N (ssRNA)
RNA: GGGAGGACGAUGCGGUAGCUGCUGUCAUGCAAGACACUAGAAGAUUAAGAUGGGGCAGACGACUCGCCCGA
modifications: 2'-NH2 pyrimidines
B36: 3F (ssRNA)
RNA: GGGAGGACGAUGCGGAUCGUAAUCGCCACUACUACUUUCCGAACCCGCACGUGGCCAGACGACUCGCCCGA
modifications: 2'-F pyrimidines
B37: 2F (ssRNA)
RNA: GGGAGGACGAUGCGGGCAUUCGUCAAUACCUUGUUUUAUUCCUUUUCUAGCGGCCCAGACGACUCGCCCGA
modifications: 2'-F pyrimidines
B38: 5F (ssRNA)
RNA: GGGAGGACGAUGCGGCGUCCCGAGUCACGCUGUCCUGAUAACCUUCUCUGUGCCCAGACGACUCGCCCGA
modifications: 2'-F pyrimidines
B39: 24N (ssRNA)
RNA: GGGAGGACGAUGCGGGUGGGAAGAUGAGCCGGUCGGCAGUAAUGUGACACUGCGGCAGACGACUCGCCCGA
modifications: 2'-NH2 pyrimidines
B40: 54N (ssRNA)
RNA: GGGAGGACGAUGCGGAGAACCAACAGAGCCCCCUGGUGGUGGGGGAAGGAUUCUCAGACGACUCGCCCGA
modifications: 2'-NH2 pyrimidines

What is called Kd is the free concentration of one partner at which half of the binding sites on the other are occupied at equilibrium, for simple one-to-one binding.

Changes are numbered by the printed parent chain.

The first data set has as its target T1, KGF (hKGF) (Homo sapiens, UniProt P21781 P21781:32-194).
T1 sequence: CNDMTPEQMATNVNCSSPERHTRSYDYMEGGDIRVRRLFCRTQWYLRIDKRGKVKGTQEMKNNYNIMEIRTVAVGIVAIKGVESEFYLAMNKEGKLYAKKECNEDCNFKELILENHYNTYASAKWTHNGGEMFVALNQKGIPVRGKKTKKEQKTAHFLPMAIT
The data set can be described thus: filter; DPBS, 37 C. Conditions: tags: Upstate Biotechnology; label: 32P.
On to B1, for which the equilibrium dissociation constant (Kd) is 2.52 nM.
Take B2: the Kd turned out to be 1.28 nM.
Same read-out and setting: the value for B3 was 1.4 nM; that for B4 was 2.02 nM; that for B5 was 0.9 nM.
On the same count and under the same terms, the value for B6 was 1.76 nM.
For the molecule B7, the equilibrium dissociation constant (Kd) worked out at 0.87 nM.
Still for that read-out and setting: with B8 the figure was 1.2 nM; with B9, 8.27 nM; with B10, 1.44 nM.
In turn, B11 had a Kd of 1 nM.
On the same count and under the same terms, with B12 the figure was 3.69 nM; with B13, 3.52 nM.
The same measure, in the same setting: with B14 the figure was 2.63 nM; with B15, 2.52 nM; with B16, 2.52 nM.
The same measure, in the same setting: with B17 the figure was 7.67 nM; with B18, 3.74 nM.
B19 yielded a Kd of 0.7 nM.
Still for that read-out and setting: with B20 the figure was 1.1 nM.
On the same count and under the same terms, the value for B21 was 0.8 nM.
Still for that read-out and setting: the value for B22 was 1.25 nM; that for B23 was 0.83 nM.
B24 came in with a Kd of 2.32 nM.
B25 had a Kd of 4.7 nM.
Same read-out and setting: with B26 the figure was 3.24 nM.
In turn, B27 yielded a Kd of 7.38 nM.
Still for that read-out and setting: with B28 the figure was 2.1 nM; with GGGAGGACGAUGCGGAUGGAGCUGAAAUCAGACGACUCGCCCGA (ssRNA, 2'-NH2 pyrimidines) [22N], 5.7 nM.
The molecule B29 returned a Kd of 1.34 nM.
On the same count and under the same terms, the value for B30 was 15.2 nM; that for B31 was 2.54 nM; that for B32 was 1.52 nM.
Still for that read-out and setting: with B33 the figure was 1.23 nM; with B34, 2.75 nM; with B35, 1.1 nM.
The molecule B36 had an equilibrium dissociation constant (Kd) of 4.47 nM.
Same read-out and setting: the value for B37 was 1.77 nM; that for B38 was 2.53 nM; that for B39 was 1.16 nM.

Still in this data set, the particulars now being: tags: Upstate Biotechnology; label: 32P; dumbbell (predicted).
For the molecule B40, the Kd was 5.35 nM.
